We go through 8 molecules from publication PMC5778462.

Where two headings read alike, the source gives them in different places.

Holding throughout (test): EMSA
Background: Mobility shift assays separate free from complexed probe on a gel.

The target in one data set is T1, MAZ (UniProt P56270).
T1 sequence: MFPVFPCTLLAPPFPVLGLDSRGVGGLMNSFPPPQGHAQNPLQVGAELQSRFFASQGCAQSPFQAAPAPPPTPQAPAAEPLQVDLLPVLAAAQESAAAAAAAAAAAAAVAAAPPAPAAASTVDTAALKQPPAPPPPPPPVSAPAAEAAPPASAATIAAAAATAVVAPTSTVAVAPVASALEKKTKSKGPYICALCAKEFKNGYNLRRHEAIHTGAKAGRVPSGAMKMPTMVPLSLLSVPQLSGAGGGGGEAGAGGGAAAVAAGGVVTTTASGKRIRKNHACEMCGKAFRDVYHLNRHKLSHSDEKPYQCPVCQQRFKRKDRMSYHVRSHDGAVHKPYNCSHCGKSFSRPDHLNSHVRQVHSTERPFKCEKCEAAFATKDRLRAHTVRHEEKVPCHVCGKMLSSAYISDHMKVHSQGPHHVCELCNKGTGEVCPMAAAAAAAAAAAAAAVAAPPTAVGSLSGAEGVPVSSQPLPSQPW

Data set [1] has as its target T2, OGG1 (hOGG1) (UniProt O15527 1-345).
For data set [2], the target named is T2, OGG1 (hOGG1). The source holds these as a separate data set.

T2 sequence (O15527 whole entry): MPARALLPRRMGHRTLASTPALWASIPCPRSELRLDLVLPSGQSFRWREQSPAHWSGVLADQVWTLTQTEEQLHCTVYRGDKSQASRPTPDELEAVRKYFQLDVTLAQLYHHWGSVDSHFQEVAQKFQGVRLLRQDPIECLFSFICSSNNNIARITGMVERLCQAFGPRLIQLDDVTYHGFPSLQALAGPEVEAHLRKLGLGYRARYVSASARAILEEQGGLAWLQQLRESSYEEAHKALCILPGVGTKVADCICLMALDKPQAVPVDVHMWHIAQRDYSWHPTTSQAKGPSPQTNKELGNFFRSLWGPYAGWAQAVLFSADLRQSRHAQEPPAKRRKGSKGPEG

For “AGGGCGGTGTGGGAAGAGGGAAGAGGGGGAGG [97 G4]”, the binding signal (fold vs 32R G4) in the data set with MAZ (8-oxoG at G16 and G23) stood at 5.
The molecule “AGGGCGGTGTGGGAAGAGGGAAGAGGGGGAGG [32R G4]” came in with a binding signal with MAZ of 1 reference.
Take “AGGGCGGTGTGGGAAGAGGGAAGAGGGGGAGG [96 G4]”: the binding signal (fold vs 32R G4) in the data set with MAZ (8-oxoG in 11-nt loop (Table 1: one; text: two; positions only in figure)) came to 5.
“AGGGCGGTGTGGGAAGAGGGAAGAGGGGGAGG [95 G4]” yielded a binding signal (fold vs 32R G4) with MAZ (8-oxoG at G16) of 5.

B1: 32R G4 (structured_DNA)
DNA: AGGGCGGTGTGGGAAGAGGGAAGAGGGGGAGG
In the case of B1, in the data set with OGG1 (hOGG1) [1], the binding result is recorded as “binds”.

B2: 93 G4 (structured_DNA)
DNA: B1 DNA
modifications: one 8-oxoG in G-run III (exact position only in figure)
As for B2, in the data set with OGG1 (hOGG1) [2], the binding result is reported as “binds”.

B3: 94 G4 (structured_DNA)
DNA: B1 DNA
modifications: two 8-oxoG in G-tetrad runs (exact positions only in figure)
Turning to B3, the binding result with OGG1 (hOGG1) [2] is “binds”.

B4: 92 G4 (structured_DNA)
DNA: B1 DNA
modifications: 8-oxoG at G6
Take B4: the binding result with OGG1 (hOGG1) [2] is given as “binds”.
